Measurements reported in article PMC5529448.

Target: P02689
Test: dynamic light scattering; triplicates at +25 °C; 0.6–0.9 mg/ml protein; 0.3 M NaCl, 20 mM HEPES pH 7.5; proteins stored on ice for 24 h after SEC
Settings: other: dynamic light scattering

B1: human myelin protein P2 T51P (protein)
chain: MSNKFLGTWKLVSSENFDDYMKALGVGLATRKLGNLAKPTVIISKKGDIIPIRTESTFKNTEISFKLGQEFEETTADNRKTKSIVTLQRGSLNQVQRWDGKETTIKRKLVNGKMVAECKMKGVVCTRIYEKV
Monomeric (%): 98.3%
